The term stoichiometry N denotes the number of molecules, sites or subunits per partner or assembly.

Results on 3 molecules are retold here after PMC13001094, “Cargo Recognition of Nesprin‑2 by the Dynein Adapter Bicaudal D2 for a Nuclear Positioning Pathway That Is Important for Brain Development” (Biochemistry, 2026).

Assay [1] concerns the target Cytoplasmic dynein (bovine). Briefly: two-colour single-molecule assay (TIRF) of reconstituted complexes on microtubules; BicD2, instead of Nesprin-2, labelled with two different colours in DDBN complexes.
Assay [2] concerns the target T1, GST-tagged human Nesprin-1 (aa 7997–8328) (human, UniProt Q8NF91 7997-8328).
T1 construct: Nesprin-1, human, aa 7997-8328 cloned (the results speak of the domain aa 7998-8315: SR70, SR71 and a disordered domain with a LEWD motif); cloned into the same vector (pGEX6p1) as the Nesprin-2 fragment; also called Nesprin-1-SR70-SR71AD; Nesprin-1 fragment; source: E. coli BL21(DE3)-RIL, purified on glutathione resin (not eluted before the pull-down); not shown: GST, N-terminal, kept
T1 sequence (looked up): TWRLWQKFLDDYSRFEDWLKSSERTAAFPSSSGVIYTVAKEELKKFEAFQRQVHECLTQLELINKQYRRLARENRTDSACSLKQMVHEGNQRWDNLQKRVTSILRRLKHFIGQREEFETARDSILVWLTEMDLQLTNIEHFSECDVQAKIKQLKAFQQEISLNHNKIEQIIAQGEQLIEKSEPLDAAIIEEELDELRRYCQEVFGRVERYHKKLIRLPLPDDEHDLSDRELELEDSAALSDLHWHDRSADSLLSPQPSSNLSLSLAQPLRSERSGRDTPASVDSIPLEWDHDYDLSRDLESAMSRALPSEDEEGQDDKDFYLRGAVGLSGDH
The assay can be described thus: pull-down; GST-tagged Nesprin-1/2 fragment held on glutathione column (not eluted), incubated 30 min with Ni-NTA-purified His6-BicD2-CTD diluted to 125 mM NaCl; washed twice; eluted with 10 mM glutathione, 50 mM Tris pH 8.0, 150 mM NaCl, 1 mM DTT; SDS-PAGE, Coomassie; band ratio normalised to WT = 1. The conditions noted are these: both partners purified.

In assay [3] the target is T2, GST-tagged mouse Nesprin-2 (aa 6123–6421) (mouse, UniProt Q6ZWQ0 6123-6421).
T2 construct: pGEX6p1 vector; codon-optimised insert from Genscript; also called Nesprin-2-SR52-SR53AD; minimal Nesprin-2 fragment; source: E. coli BL21(DE3)-RIL, purified on glutathione resin (not eluted before the pull-down); not shown: GST, N-terminal, kept
T2 sequence (looked up): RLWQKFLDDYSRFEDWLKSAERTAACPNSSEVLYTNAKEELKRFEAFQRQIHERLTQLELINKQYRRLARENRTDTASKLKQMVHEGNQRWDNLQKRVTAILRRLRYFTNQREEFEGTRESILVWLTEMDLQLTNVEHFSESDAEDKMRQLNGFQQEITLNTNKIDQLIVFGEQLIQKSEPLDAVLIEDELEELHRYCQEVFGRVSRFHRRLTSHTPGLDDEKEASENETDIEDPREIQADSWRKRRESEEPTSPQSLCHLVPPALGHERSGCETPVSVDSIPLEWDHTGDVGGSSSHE
The description is as above. The conditions noted are these: both partners purified.

Assay [4] has as its target T3, GST-tagged Nesprin-2 (aa 6123–6340) (mouse, UniProt Q6ZWQ0 6123-6340).
T3 construct: lacks the entire intrinsically disordered domain with the LEWD motif; deletion construct of m1; source: E. coli BL21(DE3)-RIL, purified on glutathione resin (not eluted before the pull-down); not shown: GST, N-terminal, kept
T3 sequence (looked up): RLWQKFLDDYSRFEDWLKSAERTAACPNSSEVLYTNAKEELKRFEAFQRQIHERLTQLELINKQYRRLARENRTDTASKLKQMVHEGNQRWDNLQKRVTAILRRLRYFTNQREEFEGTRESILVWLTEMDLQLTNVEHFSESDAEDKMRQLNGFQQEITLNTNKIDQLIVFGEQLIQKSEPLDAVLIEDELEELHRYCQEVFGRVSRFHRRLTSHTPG
The description is as above. The settings on record: both partners purified.

Assay [5] concerns the target T4, Nesprin-2 fragment of the purified minimal Nesprin-2/BicD2 complex used for SEC-MALS (mouse).
T4 chain: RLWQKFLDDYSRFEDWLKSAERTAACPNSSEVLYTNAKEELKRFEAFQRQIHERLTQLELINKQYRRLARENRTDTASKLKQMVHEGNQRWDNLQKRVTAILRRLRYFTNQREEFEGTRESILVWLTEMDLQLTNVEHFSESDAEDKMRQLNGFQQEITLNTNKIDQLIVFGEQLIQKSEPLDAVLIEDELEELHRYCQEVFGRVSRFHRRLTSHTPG
The assay can be described thus: SEC-MALS; purified minimal Nesprin-2/BicD2 complex, GST tag on Nesprin-2; methods in the supplement. The conditions noted are these: both partners purified.

“Full-length, wild-type human BicD2 (from UniProt Q8TD16-2 1-855) (natural protein)” had a stoichiometry N (BicD2 per DDBN complex) in assay [1] of 1.

B1: His6-tagged human BicD2-CTD (aa 715–804) (domain or fragment, UniProt Q8TD16-2 715-804, looked up)
chain: YENEKAMVTETMMKLRNELKALKEDAATFSSLRAMFATRCDEYITQLDEMQRQLAAAEDEKKTLNSLLRMAIQQKLALTQRLELLELDHE
notes: pET28a vector; source: E. coli LOBSTR BL21(DE3)-RIL, purified (Ni-NTA); not shown: His6, N-terminal, kept
Turning to B1, the binding result in assay [2], in assay [3] and in assay [4] was “binds” in each case.

B2: BicD2-CTD of the purified minimal Nesprin-2/BicD2 complex used for SEC-MALS (domain or fragment, human, UniProt Q8TD16-2 715-804, looked up)
chain: YENEKAMVTETMMKLRNELKALKEDAATFSSLRAMFATRCDEYITQLDEMQRQLAAAEDEKKTLNSLLRMAIQQKLALTQRLELLELDHE
notes: printed protomer mass 10.9 kDa; also called BicD2 protomer (10.9 kDa)
B2: the “stoichiometry N” value in assay [5] is 1 BicD2 per Nesprin-2 (2:2 complex).
